Results reported in PMC6399207.
Where “and” joins values, the source holds several entries; their conditions need not be identical. Equal entries are not always repeated.

Key:
[1] = biological target: Acinetobacter baumannii glutamate-1-semialdehyde-2,1-aminomutase (HemL), N-terminal His-tagged (Acinetobacter baumannii (strain ATCC 19606)); test: SEC; individually purified protein alone; Superdex 200 10/300 GL, room temperature, 50 mM Na phosphate pH 8.0, 100 mM NaCl; calibrated with ferritin, aldolase, conalbumin, ovalbumin
[2] = biological target: Acinetobacter baumannii glutamyl-tRNA reductase (HemA), N-terminal His-tagged (Acinetobacter baumannii (strain ATCC 19606)); test: SEC; sample of AbHemA and AbHemL co-expressed (pET28hemL_(6xHis)-hemA_(6xHis)) and co-purified on NiNTA; Superdex 200 10/300 GL, room temperature, 0.5 mL/min, 50 mM Na phosphate pH 8.0, 100 mM NaCl; fractions checked by SDS-PAGE; also after 16 h at 4°C without or with 0.1 M sodium citrate, and of a sample grown and purified with citrate
[3] = biological target: Acinetobacter baumannii glutamyl-tRNA reductase (HemA), N-terminal His-tagged (Acinetobacter baumannii (strain ATCC 19606)); test: SEC; individually purified protein alone; Superdex 200 10/300 GL, room temperature, 50 mM Na phosphate pH 8.0, 100 mM NaCl; calibrated with ferritin, aldolase, conalbumin, ovalbumin

Row | stoichiometry N [1] | fold increase of the 200 kDa complex fraction with 0.1 M sodium citrate against without citrate [2] | stoichiometry N [3] | Substance
1 | 2 | 4 fold | – | Acinetobacter baumannii glutamate-1-semialdehyde-2,1-aminomutase (HemL), N-terminal His-tagged (enzyme)
2 | – | – | 4 and 2 | Acinetobacter baumannii glutamyl-tRNA reductase (HemA), N-terminal His-tagged (enzyme)
